What was measured:
Details in all cases: label: 5'-32P
[1] = biological target: T1, von Willebrand Factor (vWF) (UniProt P04275 P04275:764-2813); test: filter; DPBS with Ca/Mg, 0.1 mg/mL BSA, 24 C
[2] = biological target: T1, von Willebrand Factor (vWF); test: filter; DPBS with Ca/Mg, 0.1 mg/mL BSA, 24 C; remark: listed apart in the source
From the text: (§1) A three-layer filtration medium was used, consisting (from bottom to top) of Protran nitrocellulose (Schleicher & Schuell), Hybond-P nylon (Amersham Biosciences) and GB002 gel blot paper (Schleicher & Schuell). RNA that is bound to protein is captured on the nitrocellulose filter, whereas the non-protein bound RNA is captured on the nylon filter. The gel blot paper was included simply as a supporting medium for the other filters. Following filtration, the filter layers were separated, dried and exposed on a phosphor screen (Amersham Biosciences, Piscataway, N.J.) and quantified using a Storm 860 Phosphorimager® blot imaging system (Amersham Biosciences).
A set of ARC1172 (SEQ ID NO 3) derivative aptamers introducing single phosphorothioate substitutions (Glen Research, Sterling, Va.) were chemically synthesized using standard synthesis techniques. In each set of derivatives, single phosphorothioate substitutions were systematically introduced at each internucleotide linkage position resulting in each derivative set having an aptamer with a phosphorothioate substitution at a different internucleotide position. […] KD values for the ARC1172 derivative aptamers were calculated by fitting the equation y=(max/(1+K/protein))+yint using KaleidaGraph (KaleidaGraph v. 3.51, Synergy Software).

[3] = biological target: T2, IL-23 (full length) (Homo sapiens, UniProt Q9NPF7;P29460 Q9NPF7:20-189,P29460:23-328); test: filter; PBS without Ca/Mg, 0.1 mg/mL BSA, RT 30 min; 13 nM in DPBS with Ca/Mg (Table 5)
T2 sequence (Q9NPF7 20-189, chain 1 of 2): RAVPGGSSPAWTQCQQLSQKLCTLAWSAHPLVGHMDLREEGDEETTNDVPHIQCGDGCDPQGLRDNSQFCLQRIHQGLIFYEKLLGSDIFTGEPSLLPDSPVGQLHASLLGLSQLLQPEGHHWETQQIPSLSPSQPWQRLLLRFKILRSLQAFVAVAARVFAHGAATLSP
T2 sequence (P29460 23-328, chain 2 of 2): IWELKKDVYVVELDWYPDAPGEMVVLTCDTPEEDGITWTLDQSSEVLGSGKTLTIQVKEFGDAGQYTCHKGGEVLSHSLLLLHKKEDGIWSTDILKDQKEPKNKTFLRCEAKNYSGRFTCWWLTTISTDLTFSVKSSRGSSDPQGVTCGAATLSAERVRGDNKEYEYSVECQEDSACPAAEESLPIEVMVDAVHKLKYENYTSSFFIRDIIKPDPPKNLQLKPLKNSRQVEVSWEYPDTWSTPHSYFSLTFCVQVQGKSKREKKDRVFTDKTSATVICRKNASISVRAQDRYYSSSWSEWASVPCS
From the text: as §1
A set of ARC979 (SEQ ID NO 1) derivative aptamers introducing single phosphorothioate substitutions (Glen Research, Sterling, Va.) were chemically synthesized by standard synthesis techniques. In each set of derivatives, single phosphorothioate substitutions were systematically introduced at each internucleotide linkage position resulting in each derivative within one set having an aptamer with a phosphorothioate substitution at a different internucleotide position. These derivatives were gel purified and assayed for IL-23 binding, using the dot blot assay described above under the following binding reaction conditions: 1×PBS (without Ca⁺⁺ or Mg⁺⁺) plus 0.1 mg/mL BSA, for a 30 minute incubation at room temperature. […]

[4] = biological target: T2, IL-23 (full length); test: filter; DPBS with Ca/Mg, BSA, RT; parent 3.7 nM
From the text: as §1
The dot blot binding assay previously described was used to characterize the relative potency of the majority of the aptamers synthesized as compared to the parent molecule, ARC1386. […] KD values were calculated by fitting the equation y=(max/(1+K/protein))+yint using KaleidaGraph (KaleidaGraph v. 3.51, Synergy Software).

**Q.** Which Kd [1] does the source give for GCGUGCAGUGCCUUCGGCCGTGCGGTGCCUCCGUCACGC (mixed, multiple 2'-OMe substitutions as in Table 3; 3'-idT (last t of SEQ)) [ARC1361] here?
**A.** 7.9 nM

B1: ARC1368 (mixed)
mixed: GCGUGCAGUGCCUUCGGCCGTGCGGTGCCUCCGUCACGC
modifications: as ARC1361 plus PS between 20 and 21 (as printed, mG-s-T); 3'-idT (last t of SEQ)
**Q.** How did the Kd [1] turn out when B1 was run?
**A.** 1.8 nM

**Q.** How did the Kd [2] turn out when GGCGTGCAGTGCCTTCGGCCGTGCGGTGCCTCCGTCACGCC (ssDNA, 3'-idT (last t of SEQ)) [ARC1172 w/3T] was run?
**A.** 2 nM

**Q.** With GGCGTGCAGTGCCTTCGGCCGTGCGGTGCCTCCGTCACGCC (ssDNA, 3'-idT as printed in Table 3) [ARC1172] as the binder, how does the Kd [1] read?
**A.** 2 nM

**Q.** Which Kd [3] does the source give for ACAGGCAAGUAAUUGGGGAGUGCGGGCGGGGUGU (mixed, 2'-deoxy purines, 2'-OMe pyrimidines (dRmY)) [ARC979] here?
**A.** 90 nM

**Q.** Which Kd [4] does the source give for ACAGGCAAGTAAUUGGGGAGUGCGGGCGGGGUGU (mixed, dRmY; 2'-deoxy dihydrouridine at 10; 3'-idT (last t of SEQ)) [ARC1709] here?
**A.** 2.8 nM

**Q.** ACAGGCAAGUAAUUGGGGAGUGCGGGCGGGGTGU (mixed, dRmY; 2'-deoxy dihydrouridine at 32; 3'-idT (last t of SEQ)) [ARC1713] was tested. Which Kd [4] did it give?
**A.** 2.2 nM

Source: patent US20070066551, “Aptamer medicinal chemistry” (published 2007)
